Measurements: publication PMC11425952, “Characterization of Mycobacterium smegmatis Glutaminase-Free Asparaginase (MSMEG_3173)” (ACS Omega, 2024)

Tested on: NC(=O)C[C@H](N)C(=O)O
Assay: purified protein
Format: biochemical, Mycolicibacterium smegmatis
Conditions: 50 mM Tris-HCl pH 8.6, 37 °C (standard assay), 0.05-4.0 mM L-Asn

Substance: MsA (Mycobacterium smegmatis L-asparaginase, MSMEG_3173) (Mycolicibacterium smegmatis MC2 155)
- Km: 1403 ± 240 µM
- kcat: 708.1 ± 25.05 s⁻¹
